Reference: patent publication US20160206764A1 (ONCOINVENT, published 2016)
Each block holds one molecule with its values, some of them ahead of it.

Assays:
[1] = target: CD146 (melanoma cell adhesion molecule (MCAM), cell surface glycoprotein MUC18), endogenous on human tumor cell lines (human) (UniProt P43121); test: MelJRpost3.3 cells pre-treated with OJ97cMUC18; competitor/tracer ^125I-OI-3
[2] = target: T1, CD146 (melanoma cell adhesion molecule (MCAM), cell surface glycoprotein MUC18), endogenous on human tumor … (human, UniProt P43121 24-646); test: saturation binding of ^125I-OI-3 to Mel 3.3 melanoma cells, Scatchard plot
T1 construct: whole, on cells; Also used here for the endogenous protein in lysates and tissue sections of these cells (Western blot, immunoprecipitation, IHC); also called Mel-CAM

[3] = target: T1, CD146 (melanoma cell adhesion molecule …); test: saturation binding of ^125I-OI-3 to Mel 3.3 melanoma cells, Ka=1/Kd
[4] = target: T1, CD146 (melanoma cell adhesion molecule …); test: saturation binding of ^125I-OI-3 to Mel 3.3 melanoma cells, interpolation of binding plot at half βmax

- specific binding in % of ^125I-OI-3 after pre-treatment (no pretreatment = 100%) [1]: 101%
Molecule: commercial murine monoclonal anti-CD146 (OJ79c MUC18) (antibody)

- Kd [2]: ~3.1 nM
- Ka [3]: ~3.2e+08 M⁻¹
- Kd [4]: 3.1 nM
B1: OI-3 murine monoclonal antibody (antibody, V domains shown)
VH: EVQLQQSGPELVKTGASVKISCKASGYSFTGYYIHWVKQSHGKSLEWIGYISNYNGATTYSQEFKGKATFTVDRSSRIAYMQFTGLTSEDSAVYYCAGNSWGDWYFDVWGAGTTVTVSS
VL: DVVMTQTPLSLPVSLGDQASISCRSSQSLVHSNGNTYLHWYLQKPGQSPKLLIYKVSNRFSGVPDRFSGSGSGTDFTLKISRVEAEDLGVYFCSQSTHVSTFGGGTKLEIK
notes: also called ^177Lu-OI-3
